Test results reported in patent US20130058960A1 (Genentech, published 2013).
One block for each binder: values may come before it.

Target: T1, TAT425 polypeptide (Homo sapiens (Human), UniProt O15439 1-1325)
T1 construct: no signal peptide or domain limits are stated; also called TAT425 protein; polypeptide encoded by DNA340411
T1 sequence: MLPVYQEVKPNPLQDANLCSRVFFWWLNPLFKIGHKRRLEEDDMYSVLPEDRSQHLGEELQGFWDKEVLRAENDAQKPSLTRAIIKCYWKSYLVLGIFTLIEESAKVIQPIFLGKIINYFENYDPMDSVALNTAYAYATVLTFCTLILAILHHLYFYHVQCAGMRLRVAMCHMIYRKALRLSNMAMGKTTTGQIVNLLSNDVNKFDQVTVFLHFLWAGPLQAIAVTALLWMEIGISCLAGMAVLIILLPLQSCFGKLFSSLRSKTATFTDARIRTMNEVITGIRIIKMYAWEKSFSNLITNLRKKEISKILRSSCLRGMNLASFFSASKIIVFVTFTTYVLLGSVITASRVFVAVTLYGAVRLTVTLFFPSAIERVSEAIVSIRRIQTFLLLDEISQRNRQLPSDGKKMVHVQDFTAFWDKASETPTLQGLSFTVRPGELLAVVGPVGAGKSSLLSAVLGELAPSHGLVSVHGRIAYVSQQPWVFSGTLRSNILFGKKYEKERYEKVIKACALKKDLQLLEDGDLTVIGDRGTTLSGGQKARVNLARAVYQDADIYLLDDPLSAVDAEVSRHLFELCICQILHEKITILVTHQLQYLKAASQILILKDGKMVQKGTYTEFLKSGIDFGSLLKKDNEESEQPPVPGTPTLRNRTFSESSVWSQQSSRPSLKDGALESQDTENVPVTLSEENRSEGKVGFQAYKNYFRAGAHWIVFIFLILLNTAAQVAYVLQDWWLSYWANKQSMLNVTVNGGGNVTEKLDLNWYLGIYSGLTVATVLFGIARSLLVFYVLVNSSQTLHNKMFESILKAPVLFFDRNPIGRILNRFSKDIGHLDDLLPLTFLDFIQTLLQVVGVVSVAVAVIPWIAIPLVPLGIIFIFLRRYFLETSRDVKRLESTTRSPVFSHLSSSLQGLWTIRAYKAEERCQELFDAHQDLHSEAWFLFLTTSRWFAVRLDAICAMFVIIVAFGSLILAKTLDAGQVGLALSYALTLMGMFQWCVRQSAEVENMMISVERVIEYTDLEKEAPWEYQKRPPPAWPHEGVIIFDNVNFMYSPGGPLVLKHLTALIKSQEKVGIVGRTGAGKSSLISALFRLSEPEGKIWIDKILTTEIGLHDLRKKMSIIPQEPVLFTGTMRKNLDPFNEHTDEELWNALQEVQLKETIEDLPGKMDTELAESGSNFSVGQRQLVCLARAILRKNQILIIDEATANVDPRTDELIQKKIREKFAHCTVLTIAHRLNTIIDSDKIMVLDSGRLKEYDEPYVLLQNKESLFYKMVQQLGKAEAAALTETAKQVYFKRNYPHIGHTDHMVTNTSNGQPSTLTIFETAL
Assay: Western blot, ELISA, FACS and/or immunohistochemistry on cells expressing TAT425

binding result: binds
B1: anti-TAT425 monoclonal antibody 14E7.17.1 (antibody, V domains shown)
VH: QVQLKESGPGLVAPSQSLSITCTVSGFSLTTYGVSWVRQPPGKGLEWLGLIWGDGSINYHSALISRLSISKDNSKSQVFLKLNSLQTDDTATYYCAKGWGGLYVMDYWGQGTSVTVAS
VL: DIQMTQSPASLSASVGETVTITCRSSENIYSYLAWYQQKLGKSPQLLVYNAKTLAEGVPSRFSGSGSGTQFSLKIYSLQSADFGSYYCQHHFGSPPTFGGGTKLESKR

binding result: binds
B2: anti-TAT425 monoclonal antibody 2E4.6.1 (antibody, V domains shown)
VH: EVQLQQSGAELVKPGASVKLSCTTSGFNIKDYYMQWVKQRTGQGLEWIGRIDPEDGETKNAPKFQGKATITADTSSNTAYLQLSSLTSEDTAVYFCAREGYYGNGYAMDYWGQGTSVTVSS
VL: DVLMTQTPLSLPVSLGDQASISCRSSQSIVHSNGNTYLDWYLQKPGQSPKLLIYKVSNRFSGVPDRFSGSGSGTDFTLKISRVEAEDLGVYYCFQGSHVPWTFGGGTKLEIKR

binding result: binds
B3: anti-TAT425 monoclonal antibody 13H2.28.2 (antibody, V domains shown)
VH: QVQLQQPGAELVRPGASVKLSCKASGYSFTSYWMNWVRQRPGQGLEWIGMIHPSDSETRLNQKFKDKATLTVDKSSSTAYMQLSSPTSDDSAVYFCTREAITAVHFWGHGTTLTVSS
VL: QAVVTQESALTTSPGETVTLTCRSSTGAVTTSNYANWVQEKPDHLFTGLIGGTNNRAPGVPARFSGSLIGDKAALTITGAQTEDEAIYFCALWYSNHWVFGGGTKLTVLG
